The values that follow come from the supplement of paper PMC12042874.

± gives the uncertainty stated by the source.

This data set is described as follows: amyloid nucleation score (Sup35N fusion, yeast selection) (log enrichment); library NNK3; higher = more nucleation; inactive = no reads after selection. In a few lines:
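DiMSum was used to calculate nucleation scores as log enrichment of output over input reads, centred on the mode score of non-aggregating sequences. Sequences with fewer than 100 input reads were not scored. Input and output came from Illumina sequencing of plasmid inserts in psi-negative yeast expressing peptides of 20 random codons fused to Sup35N, induced 24 hours with 100 μM copper sulfate and then grown 7 days at 30°C on medium lacking adenine and uracil.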

With RTKKMRNGASHRVMS, the amyloid nucleation score result was “inactive”. Take YNLSNTVLAISVGERNT: the amyloid nucleation score result was “inactive”.

For the substance DIGMDGYRLLRRSQQRYFMN, the amyloid nucleation score entry is “inactive”. Consider ASFFNILNPISIVVILKRFC, for which the amyloid nucleation score entry was “inactive”.

Turning to VYNQNAKVTN, the amyloid nucleation score result is “inactive”. With SIDDGLSYLMGKVKIHKSGK, the amyloid nucleation score result was “inactive”.

KDKACRNCHKGVMRVTWVK returned an amyloid nucleation score of 0.012 ± 0.87.

Take LNAEIL: the amyloid nucleation score result was “inactive”.

In turn, CVSFNLVSWVFNYCS registered an amyloid nucleation score of 2.55 ± 0.056. In the case of KEADDCVREAKFGAEFVTLR it was “inactive”. As to IMLGRANSIYMH, the amyloid nucleation score entry was “inactive”.

In turn, FYLGEYETLFVKDIRGDSVP came in with an amyloid nucleation score of -0.97 ± 1.1. On to FYYLTKSGYAFRLSKTSP, for which the amyloid nucleation score result is “inactive”. EISLPLFFATLGYFFWIAMR: the amyloid nucleation score entry was “inactive”. Regarding MNGMICISNCFKDGHVTLNK, the amyloid nucleation score was determined as 1.26 ± 0.16. For YLNVVWYGALTWSDARFRNL, the amyloid nucleation score entry is “inactive”. As for SGVRANFDFLASVAAHPLNS, the amyloid nucleation score result is “inactive”. The same measure for SNGHFAVGDDPEK: “inactive”; for IVFLLLVRLLVFIP: “inactive”. Turning to YYYLKVHNLVSYVNAFVR, the amyloid nucleation score result is “inactive”.

GLKNRVSGPPFASTYFWSAL: the amyloid nucleation score entry was “inactive”. In the case of MFVWHSC it was “inactive”. Consider ILFIDSSFLIVR, for which the amyloid nucleation score result is “inactive”. Consider ATTADLDRCSLFPKLRILRG, for which the amyloid nucleation score result is “inactive”. Take LCGSKICFLDSYDVESLISR: the amyloid nucleation score entry is “inactive”. In the case of YVNFWKLVIREINFKKNGEP it was “inactive”; in that of YSQFCYIVHLVIGMVDSRRC, “inactive”; in that of MRVVEYMTSLLSLIFYMGQK, “inactive”. On to TRPGLKWWVLRRMRHFGRRV, for which the amyloid nucleation score result was “inactive”. For the substance KLVFTIRVF, the amyloid nucleation score result was “inactive”.

On to DYALC, for which the amyloid nucleation score result is “inactive”. In the case of SAEVATFFNCKYHSSLSILT it was “inactive”; in that of LDLCSRL, “inactive”; in that of MILSNKVLIGCE, “inactive”. Take STPSTQDFVKQSLEARVLSS: the amyloid nucleation score result is “inactive”.

Regarding IIWREVINVAVYRVVAVTHK, the amyloid nucleation score entry was “inactive”. In the case of SLVTYNVVRSKARNRWIELV, the amyloid nucleation score result is “inactive”. The same measure for VITADLRSMIWDVPKNVY: 0.92 ± 0.16; for YACRMKEFYGCILSRVRVWL: “inactive”. For the substance GNSIRAVVLLRMGLELDSGV, the amyloid nucleation score entry is “inactive”. In the case of NGNFWCFVLVLS it was 0.595 ± 0.24.

For the substance LNILVTC, the amyloid nucleation score entry is “inactive”. On to FFKVSPMYY, for which the amyloid nucleation score result was “inactive”. The same measure for VDHSLVWDHWTLRDIPCKTG: “inactive”; for STHFRCELQRICF: “inactive”; for KQVNWS: “inactive”.

In the case of VNSRCI, the amyloid nucleation score result was “inactive”.

Turning to SFMACRLCGRAVDDIVEYTV, the amyloid nucleation score result was “inactive”. Consider INLFTAYAVSL, for which the amyloid nucleation score result is “inactive”. VPWSLCDD: the amyloid nucleation score was 0.508 ± 0.12. As to ASPYTGDWDTVMC, the amyloid nucleation score entry was “inactive”. Regarding GFRECTRNFFL, the amyloid nucleation score amounted to 0.361 ± 0.17.

Regarding TLDAILNLHTS, the amyloid nucleation score entry was “inactive”.

For the substance GCPIFAIFFDLTLCDNARYM, the amyloid nucleation score was 2.47 ± 0.08.
